Where no end group is shown, it is not given here.
Columns and labels:
Assay in all cases: fluorescence polarisation
[1] = biological target: FITC-conjugated CD3ε peptide (…)
[2] = biological target: FITC-conjugated PAK1 peptide (…)
[3] = biological target: NCK2 full length recombinant protein (WT, tag-free) (mouse, UniProt O55033 1-380)

“NCK2 2|3|1 full length recombinant protein (SH3-shuffled, tag-free) (from UniProt O55033)” showed a fold decrease of binding against WT NCK2 [1] of 2 fold.

For “NCK2 3|1|2 full length recombinant protein (SH3-shuffled, tag-free) (from UniProt O55033)”, the fold decrease of binding against WT NCK2 [2] was 2 fold.

In the case of “NCK2 3|2|1 full length recombinant protein (SH3-shuffled, tag-free) (from UniProt O55033)”, the fold decrease of binding against WT NCK2 [1] is reported as 2 fold.

B1: FITC-conjugated CD3ε peptide (RGQNKERPPPVPNPDY) (peptide)
peptide: RGQNKERPPPVPNPDY
modifications: also: FITC-conjugated, site not given here
B1: binds [3].

B2: FITC-conjugated PAK1 peptide (DIQDKPPAPPMRNTST) (peptide)
peptide: DIQDKPPAPPMRNTST
modifications: also: FITC-conjugated, site not given here
B2: binds [3].

Source: paper doi:10.1101/2020.05.18.103002 (bioRxiv, 2020)
